Assay results taken from patent US20260250399A1 (VIRIDIAN THERAPEUTICS, published 2026).

Columns and labels:
[1] = molecular target: T1, IGF-1R on cells (A549 human lung adenocarcinoma cells; primary human ocular choroid fibroblasts, HOCF) (human, UniProt P08069 31-1367); experiment: flow cytometry on HOCF cells, binding dose response curve
T1 construct: whole, on cells; the same molecule is used there; also called IGFR 1; IFG1R
Description: (§1) Cell binding: A549 human lung adenocarcinoma cells or primary human ocular choroid fibroblasts (HOCF) were incubated with varying concentrations of VRDN-5000 or teprotumumab. A single dose 50 nM IgG1 isotype control was used as negative control. Unbound antibody was removed by washing, and the cells were incubated with an Alexa Fluor 488-goat anti-human antibody and a cell impermeable dye to gate live cells. The median fluorescence intensity (MFI) of viable cells was measured by flow cytometry and the data were analyzed using FlowJo software. Dose curves were fitted using a non-linear regression model; log (agonist) vs response-variable slope (four parameters).
FIG. 5A-B illustrate VRDN-5000 binding to HOCF cells, which was assessed by flow cytometry and found to have largely similar binding as teprotumumab at three different concentrations.

[2] = molecular target: T1, IGF-1R on cells (A549 human lung …); experiment: flow cytometry on A549 cells, binding dose response curve
Description: as §1
VRDN-5000 Binds With High Affinity To IGF-1R On A549 Cells. As illustrated in FIG. 3A-C, VRDN-5000 binding to A549 cells was assessed by flow cytometry and found to have similar binding distribution as teprotumumab at three different concentrations.

[3] = molecular target: T1, IGF-1R on cells (A549 human lung …); experiment: cell-based or functional assay

T1 sequence (P08069 31-1367): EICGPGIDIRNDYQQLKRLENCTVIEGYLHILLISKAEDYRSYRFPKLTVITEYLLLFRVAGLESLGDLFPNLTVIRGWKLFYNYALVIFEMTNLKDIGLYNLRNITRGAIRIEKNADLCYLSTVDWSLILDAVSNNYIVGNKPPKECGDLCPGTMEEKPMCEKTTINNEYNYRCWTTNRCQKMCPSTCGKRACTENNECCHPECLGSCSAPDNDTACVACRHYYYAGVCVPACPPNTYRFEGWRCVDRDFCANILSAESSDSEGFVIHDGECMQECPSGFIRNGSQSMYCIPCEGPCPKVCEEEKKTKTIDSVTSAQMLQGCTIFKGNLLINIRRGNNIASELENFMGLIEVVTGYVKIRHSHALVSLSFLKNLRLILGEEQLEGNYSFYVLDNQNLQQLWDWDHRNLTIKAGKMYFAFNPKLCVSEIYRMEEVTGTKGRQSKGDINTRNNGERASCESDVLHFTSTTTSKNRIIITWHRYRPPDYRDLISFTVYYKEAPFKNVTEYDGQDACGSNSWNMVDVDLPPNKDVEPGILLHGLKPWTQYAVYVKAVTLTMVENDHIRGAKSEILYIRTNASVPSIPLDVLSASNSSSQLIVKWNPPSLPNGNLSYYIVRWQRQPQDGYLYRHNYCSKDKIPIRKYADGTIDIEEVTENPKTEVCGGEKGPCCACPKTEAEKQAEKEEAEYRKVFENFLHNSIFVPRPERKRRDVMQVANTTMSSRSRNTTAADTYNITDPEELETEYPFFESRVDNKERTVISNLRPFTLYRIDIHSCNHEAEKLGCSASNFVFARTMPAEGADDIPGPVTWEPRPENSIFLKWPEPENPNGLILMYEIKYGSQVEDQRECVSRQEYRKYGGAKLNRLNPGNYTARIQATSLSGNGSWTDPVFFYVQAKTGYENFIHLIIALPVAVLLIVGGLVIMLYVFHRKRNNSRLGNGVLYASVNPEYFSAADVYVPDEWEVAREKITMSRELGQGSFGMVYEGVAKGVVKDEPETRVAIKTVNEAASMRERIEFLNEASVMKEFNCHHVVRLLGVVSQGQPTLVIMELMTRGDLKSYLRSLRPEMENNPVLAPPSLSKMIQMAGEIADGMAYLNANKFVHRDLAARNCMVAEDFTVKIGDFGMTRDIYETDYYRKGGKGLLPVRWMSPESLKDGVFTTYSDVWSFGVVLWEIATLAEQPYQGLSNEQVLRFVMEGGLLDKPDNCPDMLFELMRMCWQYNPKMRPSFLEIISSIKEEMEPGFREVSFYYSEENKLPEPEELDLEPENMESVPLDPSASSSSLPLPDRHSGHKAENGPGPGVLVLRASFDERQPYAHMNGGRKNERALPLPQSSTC

EC50 [1]: 0.4 nM | EC50 [2]: 0.1 nM | IC50 of IGF-1 stimulated receptor phosphorylation on A549 cells (pIGF-1R ELISA) [3]: 90 pM | IC50 of IGF-1 stimulated receptor phosphorylation on HOCF cells (pIGF-1R ELISA) [3]: 90 pM
B1: VRDN-5000 (antibody, human IgG1, kappa)
heavy: not shown
light: DVVMTQTPLSLPVSLGDPASISCRSSQSIVHSNVNTYLEWYLQKPGQSPRLLIYKVSNRFSGVPDRFSGSGAGTDFTLRISRVEAEDLGIYYCFQGSHVPPTFGGGTKLEIKRTVAAPSVFIFPPSDEQLKSGTASVVCLLNNFYPREAKVQWKVDNALQSGNSQESVTEQDSKDSTYSLSSTLTLSKADYEKHKVYACEVTHQGLSSPVTKSFNRGEC
notes: neither was used; also called VRDN-001
